US20230322908A1 (AC IMMUNE, published 2023)
Where no end group is shown, it is not given here.

B1: ACI-7069-642D12-Ab1 (antibody, mouse IgG2b, V domains shown)
VH: EVQLQQSGAELVKPGASVRLSCTASGFNIKDPYMHWVRQRPKQGLEWIGRIDPADGNTKYDPKFQGKATLTADTSSNVAYLHLSSLTSEDTAVYYCARFYGSSHWYFDVWGAGTTVTVSS
VL: DIKMTQSPSSMYASLGERVTITCKASQDIKRYLSWYQQKPWKSPKILIYYATSLADGVPSRFSGTGSGQDYSLTISSLESDDVATYYCLQQGESPYTFGGGTKLEIK
notes: Mouse IgG2b, kappa, from hybridoma; also called 642D12B4
B2: ACI-7069-633B12-Ab1 (antibody, mouse IgG2b, V domains shown)
VH: EVQLQQSGPELVKPGASVKISCKTSGFTFTEYSMHWVKQSHGKSLEWIGGINPNNGGTSYNQKFKGKATLTVDKSSSTAYMELRSLTSEDSAVYYCARESWGQGTTLTVSS
VL: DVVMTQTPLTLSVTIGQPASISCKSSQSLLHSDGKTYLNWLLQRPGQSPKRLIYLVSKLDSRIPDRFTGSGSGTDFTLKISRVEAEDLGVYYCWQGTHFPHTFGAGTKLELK
notes: Mouse IgG2b, kappa, from hybridoma; also called 633B12C8

How the values were obtained:
[1] = biological target: T1, recombinant human full-length TDP-43 (TAR DNA-binding protein 43), soluble (human, UniProt Q13148 1-414); test: Luminex, FL TDP-43 on beads
T1 construct: Used on Luminex beads, coated on ELISA plates, and immobilized or injected in SPR; also called FL TDP-43; TDP-43 protein
Protocol: Mice were euthanized and fusion with myeloma cells was performed using splenocytes from four individual mice. Screening for antibodies from the successfully fused hybridoma cell lines were performed as follows. Diluted (1:32) cell culture supernatants were analyzed using Luminex bead-based multiplex assay (Luminex, The Netherlands). Luminex beads were conjugated to FL TDP-43 and with capturing IgGs with anti-mouse IgG-Fc antibodies specific for the IgG1, IgG2a, IgG2b, IgG2c, and IgG3 subclasses (Jackson Immunoresearch, USA). Binding to beads conjugated to FL TDP-43 identified 386 hits derived from mice immunized with the FL TDP-43 liposomal vaccine.
Luminex assays with serial dilution of antibodies were performed as described before to determine half maximal effective concentration (EC50) of binding of antibodies to FL TDP-43. In summary, all tested antibodies bind to full length TDP-43 with high affinity.

[2] = biological target: T2, Biotinylated TP-73 peptide (aa 181-190 of SEQ ID NO:1) (human, also: biotinylated (position not given here)); test: SPR, biotinylated TP-73 on SA chip
T2 construct: Immobilized on a streptavidin (SA) sensor chip
T2 peptide: KQSQDEPLRS
Protocol: Binding avidity to soluble or aggregated FL TDP-43 was evaluated by determing the dissociation constants (KD) using surface plasmon resonance (SPR; Biacore T200, GE Healthcare Life Sciences). Recombinant human soluble or aggregated FL TDP-43 were immobilized on a CM5 Series S sensor chip (GE Healthcare Life Sciences) by amine coupling. Soluble TDP-43 was immobilized at a concentration of 5 µg/ml in 10 mM sodium acetate (pH 4.5) with a flow rate of 5 µl/min for 420 seconds resulting in an immobilization level of 150 RU. Aggregated TDP-43 was immobilized at a concentration of 50 µg/ml in 10 mM sodium acetate (pH 4.5) with a flow rate of 5 µl/min for 840 seconds resulting in an immobilization level of 110 RU. Biotinylated TP-73 peptide (aa 181-190 of SEQ ID NO:1) was immobilized on a Series S Sensor Chip SA (GE Healthcare Life Sciences) at a concentration of 5 µg/ml in PBS-P⁺ with a flow rate of 5 µl/min for 30 seconds resulting in an immobilization level of 400 RU. […] The antibodies were injected at a flow rate of 50 µl/min for 90 seconds contact time and 700 seconds dissociation phase followed by three regenerations with 10 mM glycine-HCl pH 1.7. […] Results obtained from binding kinetics were double-referenced using a blank flow cell and a buffer cycle and were evaluated with a global 1:1 fitting model with RI. […]

[3] = biological target: T1, recombinant human full-length TDP-43 …; test: SPR, immobilized soluble TDP-43
Protocol: (§1) Binding avidity to soluble or aggregated FL TDP-43 was evaluated by determing the dissociation constants (KD) using surface plasmon resonance (SPR; Biacore T200, GE Healthcare Life Sciences). Recombinant human soluble or aggregated FL TDP-43 were immobilized on a CM5 Series S sensor chip (GE Healthcare Life Sciences) by amine coupling. Soluble TDP-43 was immobilized at a concentration of 5 µg/ml in 10 mM sodium acetate (pH 4.5) with a flow rate of 5 µl/min for 420 seconds resulting in an immobilization level of 150 RU. Aggregated TDP-43 was immobilized at a concentration of 50 µg/ml in 10 mM sodium acetate (pH 4.5) with a flow rate of 5 µl/min for 840 seconds resulting in an immobilization level of 110 RU. Biotinylated TP-73 peptide (aa 181-190 of SEQ ID NO:1) was immobilized on a Series S Sensor Chip SA (GE Healthcare Life Sciences) at a concentration of 5 µg/ml in PBS-P⁺ with a flow rate of 5 µl/min for 30 seconds resulting in an immobilization level of 400 RU. […] The antibodies were injected at a flow rate of 50 µl/min for 90 seconds contact time and 700 seconds dissociation phase followed by three regenerations with 10 mM glycine-HCl pH 1.7. For the optimized SPR protocol the antibodies were diluted 3-fold starting from 300 nM and dilute down to 1.2 nM and injected for 300 seconds at 30 µl/min followed by 600 seconds dissociation. The surface was regenerated by one injection with 10 mM glycine-HCl pH 1.7. Results obtained from binding kinetics were double-referenced using a blank flow cell and a buffer cycle and were evaluated with a global 1:1 fitting model with RI. Avidities for 11 antibodies and two Fab fragments are depicted in Table 8. […] In addition, some antibodies show preferential binding to aggregated TDP-43 as compared with soluble TDP-43.

[4] = biological target: T1, recombinant human full-length TDP-43 …; test: indirect ELISA, coated FL TDP-43
Protocol: Antibody binding to human FL TDP-43 was determined using an indirect ELISA. ELISA plate coating with 1 µg/ml human FL TDP-43 was performed overnight in carbonate buffer at 4° C. Plates were washed with 0.05% Tween-20/PBS and then blocked with 1% bovine serum albumin (BSA) in 0.05% Tween-20/PBS for 1 hour at 37° C. Antibodies purified from hybridoma supernatants were then added in a 3-fold serial dilution starting at 1 µg/ml, and incubated for 2 hours at 37° C. after which the plates were washed. An AP-conjugated anti-mouse IgG secondary antibody (Jackson Immunoresearch Laboratories, United Kingdom) was added at 1/1000 dilution in 0.05% Tween-20/PBS for 1 hour at 37° C. After the final wash, plates were incubated with pNPP (Sigma-Aldrich, Switzerland) phosphatase substrate solution, and read at 405 nm using an ELISA plate reader (Tecan, Switzerland).

[5] = biological target: T3, recombinant human aggregated full-length TDP-43 (human, UniProt Q13148 1-414); test: SPR, immobilized aggregated TDP-43
T3 construct: also called aggregated TDP-43; aggregated FL TDP-43
Protocol: as §1

[6] = biological target: T1, recombinant human full-length TDP-43 …; test: SPR, mAb captured, FL TDP-43 injected; mean
Protocol: Binding affinity to soluble FL TDP-43 was evaluated by determing the dissociation constants (KD) using surface plasmon resonance (SPR; Biacore T200, GE Healthcare Life Sciences). Goat-anti mouse capture antibody was immobilized on a CM5 Series S sensor chip (GE Healthcare Life Sciences) by amine coupling. Antibodies were captured at a concentration of 2-5 µg/ml in PBS-P⁺ (GE Healthcare Life Sciences) with a flow rate of 10 µl/min for 120 seconds resulting in a capture level of 350-1000 RU. […] Dissociation was recorded for 1 h followed by one regeneration with 10 mM glycine-HCl pH 1.7. Results obtained from binding kinetics were double-referenced using a blank flow cell and a buffer cycle and were evaluated with a global 1:1 fitting model with RI.

[7] = biological target: T4, TP-51 peptide (aa 352-414 of SEQ ID NO:1) (human); test: SPR, mAb captured, TP-51 injected
T4 construct: Synthetic peptide (Pepscan)
T4 peptide: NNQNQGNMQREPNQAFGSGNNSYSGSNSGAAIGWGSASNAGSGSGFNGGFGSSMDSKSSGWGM

[8] = biological target: T4, TP-51 peptide (aa 352-414 of SEQ ID …); test: SPR, mAb captured, TP-51 injected; mean
[9] = biological target: T1, recombinant human full-length TDP-43 …; test: SPR, immobilized soluble TDP-43; whole hybridoma antibody, first SPR protocol (90 s contact); soluble TDP-43 on the chip

T3 sequence (Q13148 whole entry): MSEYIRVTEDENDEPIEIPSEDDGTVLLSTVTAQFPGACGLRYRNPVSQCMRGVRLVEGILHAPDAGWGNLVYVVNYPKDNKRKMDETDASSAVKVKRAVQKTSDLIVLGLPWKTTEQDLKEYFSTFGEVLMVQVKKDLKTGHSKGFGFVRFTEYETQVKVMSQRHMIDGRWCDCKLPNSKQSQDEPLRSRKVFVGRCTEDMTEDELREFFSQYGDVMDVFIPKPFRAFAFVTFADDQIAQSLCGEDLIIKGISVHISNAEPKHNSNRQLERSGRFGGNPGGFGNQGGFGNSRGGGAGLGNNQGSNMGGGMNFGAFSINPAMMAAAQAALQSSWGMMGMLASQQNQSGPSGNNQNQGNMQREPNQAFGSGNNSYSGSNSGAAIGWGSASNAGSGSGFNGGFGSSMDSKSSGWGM
T1 sequence (Q13148 whole entry): as above

Row | EC50 [1] [nM] | Kd [2] [nM] | Kd [3] [nM] | koff [3] [s⁻¹] | kon [3] [M⁻¹ s⁻¹] | EC50 [4] [µg/mL] | Kd [5] [nM] | koff [5] [s⁻¹] | kon [5] [M⁻¹ s⁻¹] | Kd [6] [nM] | koff [6] [s⁻¹] | kon [6] [M⁻¹ s⁻¹] | Kd [7] [nM] | Kd [8] [nM] | koff [8] [s⁻¹] | kon [8] [M⁻¹ s⁻¹] | Kd [9] [nM] | Binder
1 | < 0.01 | 3.6 | 5.28 | 0.000838 | 159000 | 0.014 | 0.88 | 0.000131 | 148000 | 0.249 | 2.76e-05 | 110000 |  |  |  |  |  | B1
2 | < 0.01 |  |  | 0.000319 | 873 | 0.032 | 0.62 | 5.01e-05 | 82100 | 0.075 | 3.45e-06 | 43900 | 1.18 to 1.32 | 1.25 | 0.000138 | 110000 | 365 | B2
